In US20260167718A1 (Merck Sharp & Dohme, published 2026):
Positions count from the first letter of the chain named. In names and notes the source's numbering stands.

T1: rhesus ILT3-His tagged recombinant protein (rhesus monkey (Macaca mulatta))
T1 construct: also called ILT3_MM; not shown: His tag
T1 chain: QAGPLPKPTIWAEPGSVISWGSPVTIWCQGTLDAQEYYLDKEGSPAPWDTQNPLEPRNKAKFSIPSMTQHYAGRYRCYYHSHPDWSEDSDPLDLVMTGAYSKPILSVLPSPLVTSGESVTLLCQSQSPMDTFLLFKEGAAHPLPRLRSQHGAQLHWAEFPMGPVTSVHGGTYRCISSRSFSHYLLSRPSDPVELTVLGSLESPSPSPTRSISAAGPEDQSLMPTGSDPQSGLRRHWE

B1: Rat anti-ILT3 mAb 17H12 IgG1/Kappa (antibody, V domains shown)
VH: EVQLVESGGGLVQPGRSMKLSCAASGFTFSNFDMAWVRQAPTRGLEWVSSITYDGGSTSYRDSVKGRFTISRDNAKGTLYLQMDSLRSEDTATYYCTTVESIATISTYFDYWGQGVMVTVSS
VL: DIVLTQSPALAVSLGQRATISCRASQSVSMSRYDLIHWYQQKPGQQPKLLIFRASDLASGIPARFSGSGSGTDFTLTINPVQADDIATYYCQQTRKSPPTFGGGTRLELK
notes: Rat IgG1/Kappa; also called p17H12; LB190.17H121A1
B2: Mouse anti-ILT3 mAb 11D1 IgG2b/Kappa (antibody, V domains shown)
VH: QVQLQQSGAELMKPGASVKISCKATGYTFRTYWIEWVKQRPGHGLEWIGEILPGNGNTHFNENFKDKATFTADTSSNAAYMQLSSLTSEDSAVYYCVRRLGRGPFDFWGQGTTLTVSS
VL: DIQMTQSPSSLSVSLGGKVTITCKASQDINEYIGWYQRKPGKGPRLLIHYTSTLQSGIPSRFSGSGSGRDYSLSISNLEPEDIATYYCLQYANPLPTFGGGTKLEIK
notes: Mouse IgG2b/Kappa; also called p11D1; LB182.11D1.1A1
B3: Mouse anti-ILT3 mAb 1G12 IgG2a/Kappa (antibody, V domains shown)
VH: QVQMQQSGTELMKPGASMKISCKATGYTFSTYWIQWIKQRPGHGLEWIGEILPGSGTTNYNENFKGKATFSADTSSNTAYIHLSSLTSEDSAVFYCARRLGRGPFDYWGQGTTLTVSS
VL: DIQMTQSPSSLSASLGGKVTITCEASQDINKHIDWYQHQPGRGPSLLIHYASILQPGIPSRFSGSGSGRDYSFSITSLEPEDIATYYCLQYDNLLPTFGGGTKLEIK
notes: Mouse IgG2a/Kappa; also called p1G12; LB182.1G12.1B1
B4: Rat anti-ILT3 mAb 24A4 IgG2a/Kappa (antibody, V domains shown)
VH: QVQLKESGPGLVQASETLSLTCTVSGFSLTSYCVNWVRQPSGKGPEWLGRFWYDEGKVYNLTLESRLSISGDTSKNQVFLKMNRLRTDDTGTYYCTRDRDTLGITGWFAYWGQGTLVTVSS
VL: ETVMTQSPTSLSASIGERVTLNCKASQSVGINVDWYQQTPGQSPKLLIYGSANRHTGVPDRFTGSGFGSGFTLTISNVEPEDLGVYYCLQYGSVPYTFGPGTKLELK
notes: Rat IgG2a/Kappa; also called p24A4; LB184.24A4.1A1
B5: Rat anti-ILT3 mAb 20E4 IgG2a/Kappa (antibody, V domains shown)
VH: QVQLKESGPGLVQASETLSLTCTVSGFSLTSYSVNWVRQPSGKGLEWMGRFWYDGGTAYNSTLESRLSISGDTSKNQVFLKMNSLQTDDTGTYYCTRDRDTMGITGWFAYWGQGTLVTVSP
VL: B4 VL with I31V, G70D, P100A
notes: Rat IgG2a/Kappa; also called p20E4; LB184.20E4.1E1.1D1
B6: Rat anti-ILT3 mAb 37C8 IgG2a/Kappa (antibody, V domains shown)
VH: B4 VH with L102M
VL: B4 VL
notes: Rat IgG2a/Kappa; also called p37C8; LB184.37C8.1A3.1B1
B7: Rat anti-ILT3 mAb 16B1 IgG2a/Kappa (antibody, V domains shown)
VH: B4 VH with S31N, Y53F, V58A, K81R, R84S, T87A, L102V
VL: B4 VL with G70D
notes: Rat IgG2a/Kappa; also called p16B1; LB184.16B1.1D2
B8: Humanized anti-ILT3 mAb (52B8 VH1 M64V/VL5) IgG4 S228P/Kappa (antibody)
heavy: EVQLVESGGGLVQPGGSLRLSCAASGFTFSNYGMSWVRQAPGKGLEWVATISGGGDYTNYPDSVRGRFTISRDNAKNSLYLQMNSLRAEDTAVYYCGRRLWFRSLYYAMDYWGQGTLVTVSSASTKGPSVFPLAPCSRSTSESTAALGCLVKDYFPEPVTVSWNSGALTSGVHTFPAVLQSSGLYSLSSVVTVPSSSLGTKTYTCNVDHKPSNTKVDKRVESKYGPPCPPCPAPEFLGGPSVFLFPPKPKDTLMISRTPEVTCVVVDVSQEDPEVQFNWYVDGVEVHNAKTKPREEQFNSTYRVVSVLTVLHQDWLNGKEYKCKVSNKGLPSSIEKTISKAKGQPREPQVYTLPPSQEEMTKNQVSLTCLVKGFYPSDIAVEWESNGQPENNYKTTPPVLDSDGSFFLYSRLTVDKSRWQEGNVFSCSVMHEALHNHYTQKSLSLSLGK
light: DIQLTQSPSSLSASVGDRVTITCRASEKVDSFGNSFMHWYQQKPGKAPKLLIYLTSNLDSGVPSRFSGSGSGTDFTLTISSLQPEDFATYYCQQNNEDPYTFGQGTKLEIKRTVAAPSVFIFPPSDEQLKSGTASVVCLLNNFYPREAKVQWKVDNALQSGNSQESVTEQDSKDSTYSLSSTLTLSKADYEKHKVYACEVTHQGLSSPVTKSFNRGEC
notes: also called mAb 30; humanized 52B8 VH1 M64V/VL5
B9: Humanized anti-ILT3 mAb (52B8 VH1 M64V/VL8) IgG4 S228P/Kappa (antibody)
heavy: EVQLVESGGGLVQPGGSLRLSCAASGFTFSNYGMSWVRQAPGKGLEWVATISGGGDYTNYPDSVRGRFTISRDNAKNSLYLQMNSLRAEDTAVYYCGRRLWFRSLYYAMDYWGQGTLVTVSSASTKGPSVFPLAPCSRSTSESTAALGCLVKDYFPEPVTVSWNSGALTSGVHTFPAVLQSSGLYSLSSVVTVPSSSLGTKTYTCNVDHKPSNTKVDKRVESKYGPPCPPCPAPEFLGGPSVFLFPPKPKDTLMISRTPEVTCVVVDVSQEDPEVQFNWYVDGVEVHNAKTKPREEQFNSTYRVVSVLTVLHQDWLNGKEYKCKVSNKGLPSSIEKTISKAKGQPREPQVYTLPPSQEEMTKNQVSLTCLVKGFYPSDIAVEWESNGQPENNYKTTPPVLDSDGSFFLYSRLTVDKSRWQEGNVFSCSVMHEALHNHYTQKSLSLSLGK
light: B8 light with S64A, G72R
notes: also called mAb 33
B10: Humanized anti-ILT3 mAb (52B8 VH1 M64V/VL7) IgG4 S228P/Kappa (antibody)
heavy: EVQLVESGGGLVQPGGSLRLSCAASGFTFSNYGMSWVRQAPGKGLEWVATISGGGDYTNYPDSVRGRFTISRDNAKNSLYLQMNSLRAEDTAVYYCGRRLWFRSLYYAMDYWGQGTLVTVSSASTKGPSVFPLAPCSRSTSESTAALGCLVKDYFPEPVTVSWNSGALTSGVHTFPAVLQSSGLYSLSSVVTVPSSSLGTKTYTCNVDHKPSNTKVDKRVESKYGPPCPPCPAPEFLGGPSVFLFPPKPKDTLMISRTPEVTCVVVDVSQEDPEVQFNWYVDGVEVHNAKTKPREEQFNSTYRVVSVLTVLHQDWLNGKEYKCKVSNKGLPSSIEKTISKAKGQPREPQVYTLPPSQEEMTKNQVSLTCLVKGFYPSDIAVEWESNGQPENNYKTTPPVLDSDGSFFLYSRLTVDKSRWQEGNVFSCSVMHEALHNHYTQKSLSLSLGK
light: B8 light with G72R
notes: also called mAb 32
B11: Humanized anti-ILT3 mAb (52B8 VH1 M64V/VL6) IgG4 S228P/Kappa (antibody)
heavy: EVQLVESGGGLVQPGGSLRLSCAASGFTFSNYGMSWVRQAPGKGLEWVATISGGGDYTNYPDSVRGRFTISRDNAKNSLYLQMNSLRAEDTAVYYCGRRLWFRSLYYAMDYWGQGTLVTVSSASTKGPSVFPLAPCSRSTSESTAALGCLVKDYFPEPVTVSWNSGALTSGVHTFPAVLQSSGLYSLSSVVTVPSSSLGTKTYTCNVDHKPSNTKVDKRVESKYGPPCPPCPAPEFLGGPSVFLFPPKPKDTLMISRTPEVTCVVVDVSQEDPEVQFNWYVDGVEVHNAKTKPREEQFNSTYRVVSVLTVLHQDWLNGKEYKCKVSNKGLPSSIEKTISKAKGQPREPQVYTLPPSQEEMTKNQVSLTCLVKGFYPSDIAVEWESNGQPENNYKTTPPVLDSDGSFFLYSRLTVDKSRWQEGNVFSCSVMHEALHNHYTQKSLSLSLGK
light: B8 light with L4M, G72R
notes: also called mAb 31
B12: Humanized anti-ILT3 mAb (52B8 VH1 M64V/VL2) IgG4 S228P/Kappa (antibody)
heavy: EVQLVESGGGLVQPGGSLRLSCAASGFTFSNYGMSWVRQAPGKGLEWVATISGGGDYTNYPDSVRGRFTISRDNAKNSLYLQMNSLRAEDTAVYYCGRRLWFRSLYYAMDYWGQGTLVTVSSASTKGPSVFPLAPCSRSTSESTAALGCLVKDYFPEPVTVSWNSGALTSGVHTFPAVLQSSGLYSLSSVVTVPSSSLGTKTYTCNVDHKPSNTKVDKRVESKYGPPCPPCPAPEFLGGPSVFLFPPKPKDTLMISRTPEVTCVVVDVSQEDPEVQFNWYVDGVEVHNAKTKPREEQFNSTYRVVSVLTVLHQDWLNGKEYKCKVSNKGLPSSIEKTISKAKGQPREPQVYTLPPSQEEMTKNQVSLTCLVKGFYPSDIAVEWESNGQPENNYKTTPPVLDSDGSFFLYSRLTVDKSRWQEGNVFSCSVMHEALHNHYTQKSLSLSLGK
light: DIVLTQSPDSLAVSLGERATINCRASEKVDSFGNSFMHWYQQKPGQPPKLLIYLTSNLDSGVPDRFSGSGSGTDFTLTISSLQAEDVAVYYCQQNNEDPYTFGQGTKLEIKRTVAAPSVFIFPPSDEQLKSGTASVVCLLNNFYPREAKVQWKVDNALQSGNSQESVTEQDSKDSTYSLSSTLTLSKADYEKHKVYACEVTHQGLSSPVTKSFNRGEC
notes: also called mAb 10
B13: Chimeric anti-ILT3 52B8 mouse VH/human IgG4 (S228P):mouse VL/human Kappa (antibody)
heavy: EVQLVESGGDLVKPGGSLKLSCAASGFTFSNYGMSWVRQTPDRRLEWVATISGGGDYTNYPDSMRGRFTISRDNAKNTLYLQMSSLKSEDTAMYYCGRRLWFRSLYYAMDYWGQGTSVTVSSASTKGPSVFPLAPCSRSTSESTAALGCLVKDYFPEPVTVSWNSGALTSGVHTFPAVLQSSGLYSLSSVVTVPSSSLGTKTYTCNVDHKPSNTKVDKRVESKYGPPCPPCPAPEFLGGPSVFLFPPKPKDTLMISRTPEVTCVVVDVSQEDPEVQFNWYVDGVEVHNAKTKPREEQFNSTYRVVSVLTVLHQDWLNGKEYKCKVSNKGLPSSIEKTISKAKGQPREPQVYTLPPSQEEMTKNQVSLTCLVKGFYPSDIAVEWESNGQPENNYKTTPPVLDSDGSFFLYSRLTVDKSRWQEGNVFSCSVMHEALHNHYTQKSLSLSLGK
light: NIVLTQSPASLAVSLGQRATISCRASEKVDSFGNSFMHWYQQKPGQPPKLLIYLTSNLDSGVPARFSGSGSRTDFALTIDPVEADDAATYYCQQNNEDPYTFGGGTKLEIKRTVAAPSVFIFPPSDEQLKSGTASVVCLLNNFYPREAKVQWKVDNALQSGNSQESVTEQDSKDSTYSLSSTLTLSKADYEKHKVYACEVTHQGLSSPVTKSFNRGEC
notes: also called mAb 73; c52B8

These binders were tested against T2, Human ILT3 (LILRB4) extracellular domain with C-terminal His Tag (human, UniProt Q8NHJ6 22-259) (assay: SPR (Biacore), human ILT3-His).
T2 construct: the claims count residues 1-238 as the extracellular domain; also called human ILT3-His; ILT3_H
Binder B1 has a Kd of 0.592 nM. With B2 the Kd was 14.1 nM. For B3, the Kd was 16.9 nM. Binder B4 has a Kd of 0.0205 nM. Binder B5 has a Kd of 6.99 nM. With B6 the Kd was 0.0118 nM. For B7, the Kd was 0.0957 nM.

The binders below were run against T2, Human ILT3 (LILRB4) extracellular … (assay: Biacore SPR, column huILT3 KD (nM)).
B8 showed a Kd of 0.6 nM. With B9 the Kd was 0.54 nM. B10 gave a Kd of 0.53 nM. B11 gave a Kd of 0.88 nM. In the case of B12, the Kd is reported as 0.72 nM.

Target: T2, Human ILT3 (LILRB4) extracellular …
Assay: SPR (Biacore), human ILT3-His
Remark: another data set of the same source
With B8 the Kd was 0.6 nM. B9 showed a Kd of 0.54 nM. For B10, the Kd was 0.53 nM. For B11, the Kd was 0.88 nM. With B12 the Kd was 1.1 nM. B13 was tested, and the Kd was 0.46 nM. With B4 the Kd was 0.021 nM. For B5, the Kd was 6.99 nM. B6 showed a Kd of 0.012 nM. Work on B7 yielded a Kd of 0.096 nM.

Each binder was assayed against T3, human ILT3 expressed on cells (human, UniProt Q8NHJ6 22-448) (assay: cell-based or functional assay).
In the case of B13, the “TNFα secretion by human monocyte-derived dendritic cells polarized with IL-10 and LPS; concentration giving half of the maximal increase (EC50)” value is reported as ~0.0019 µg/mL.

Each binder was assayed against T4, Rhesus monkey ILT3 expressed on CHO-K1 cells (rhesus monkey (Macaca mulatta)) (assay: cELISA, CHO rhesus ILT3 cells).
T4 construct: whole, on cells; also called rhILT3; CHO-rhesus ILT3
Description: (§1) Mouse anti-human ILT3 antibodies were tested for binding to human ILT3, and cross-reactivity to Rhesus monkey ILT3, human ILT5, human ILT7, human ILT8, and human ILT11 expressing CHO-K1 cells using a cell-based ELISA format. CHO-K1 cells were plated in 96-well tissue-culture plates in 50 μL of DMEM/F12, 10% BCS and gentamycin (CHO-K1 media). Cells were plated at either 2×10⁴ cells/well two days prior to the assay or 4×10⁴ cells/well one day prior to the assay. Media was removed from the wells prior to adding the test samples. Purified antibody was serially-diluted in CHO-K1 media and added to the CHO-K1 plates. The samples were incubated at room temperature for 30-60 minutes and plates were washed three times with PBS/05% Tween-20 using the cell wash program on the Biotek EL405x Select CW plate washer. Binding was detected using an HRP-conjugated goat anti-mouse IgG (Southern Biotech cat #1031-05) secondary antibody added at a 1:2000 dilution in CHO-K1 media and incubated at room temperature for 30-60 minutes. Assay plates were washed as above and developed with TMB and stopped with TMB stop solution (KPL cat #50-85-06). The absorbance at 450 nm—620 nm was determined. Mouse IgG1 (MIgG1) served as a control.
Work on B4 yielded an EC50 of 0.0231 µg/mL. B5 showed an EC50 of 0.018 µg/mL. Binder B6 has an EC50 of 0.0095 µg/mL. In the case of B7, the EC50 is reported as 0.0679 µg/mL.

These binders were tested against T3, human ILT3 expressed on cells (assay: cELISA, CHO human ILT3 cells).
Description: as §1
Binder B1 has an EC50 of 0.139 µg/mL. In the case of B2, the EC50 is reported as 0.0505 µg/mL. With B3 the EC50 was 0.0392 µg/mL. B4 gave an EC50 of 0.0214 µg/mL. Binder B5 has an EC50 of 0.002 µg/mL. Work on B6 yielded an EC50 of 0.0077 µg/mL. For B7, the EC50 was 0.0649 µg/mL.

Target: T3, human ILT3 expressed on cells
Assay: cELISA, CHO human ILT3 cells
Remark: another data set of the same source
Work on B1 yielded an EC50 of 139 µg/mL. Work on B2 yielded an EC50 of 50.5 µg/mL. B12 gave an EC50 of 0.085 µg/mL. With B13 the EC50 was 0.064 µg/mL. Binder B3 has an EC50 of 39.2 µg/mL. Work on B4 yielded an EC50 of 21.4 µg/mL. B5 was tested, and the EC50 was 1.99 µg/mL. Work on B6 yielded an EC50 of 7.72 µg/mL.

Target: T1, rhesus ILT3-His tagged recombinant …
Assay: Biacore SPR, column rhILT3 KD (nM)
With B8 the Kd was 4.8 nM. Binder B9 has a Kd of 5.59 nM. For B10, the Kd was 5.61 nM. B11 showed a Kd of 10.3 nM. Binder B12 has a Kd of 8.77 nM.

Target: T4, Rhesus monkey ILT3 expressed on CHO-K1 …
Assay: cELISA, CHO rhesus ILT3 cells
Remark: another data set of the same source
Binder B12 has an EC50 of 0.148 µg/mL. In the case of B13, the EC50 is reported as 0.091 µg/mL. For B4, the EC50 was 21.3 µg/mL. Work on B5 yielded an EC50 of 18 µg/mL. For B6, the EC50 was 9.48 µg/mL.

Target: T1, rhesus ILT3-His tagged recombinant …
Assay: SPR (Biacore), rhesus ILT3-His
B1: no binding. B3: no binding. With B4 the Kd was 0.126 nM. With B5 the Kd was 18 nM. B6 gave a Kd of 0.15 nM. B7 gave a Kd of 0.259 nM.

Target: T1, rhesus ILT3-His tagged recombinant …
Assay: SPR (Biacore), rhesus ILT3-His
Remark: another data set of the same source
In short: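 Antibodies captured on anti-human Fc surface, with human or rhesus ILT3-His as analyte in HBS-EP+ running buffer; reference flow cell subtracted, regeneration with 3M MgCl₂. ka and kd obtained from 1:1 Langmuir fits, KD = kd/ka.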
Work on B8 yielded a Kd of 4.8 nM. With B9 the Kd was 5.6 nM. Work on B10 yielded a Kd of 5.6 nM. For B11, the Kd was 10 nM. With B12 the Kd was 22 nM. Work on B13 yielded a Kd of 9.5 nM. In the case of B4, the Kd is reported as 0.126 nM. In the case of B5, the Kd is reported as 18.2 nM. Work on B6 yielded a Kd of 0.145 nM. With B7 the Kd was 0.259 nM.
